Substitutions are numbered along the chain they refer to. Names may count otherwise. Read-outs that look alike come from different tables or passages of the source.
Tests used:
Assay in all cases: SPR
[1] = molecular target: human V158 FcγRIIIa, extracellular region (human, UniProt P08637 17-208)
[2] = molecular target: T1, human FcγRIIb, extracellular region (human, UniProt P31994 43-217)
T1 chain: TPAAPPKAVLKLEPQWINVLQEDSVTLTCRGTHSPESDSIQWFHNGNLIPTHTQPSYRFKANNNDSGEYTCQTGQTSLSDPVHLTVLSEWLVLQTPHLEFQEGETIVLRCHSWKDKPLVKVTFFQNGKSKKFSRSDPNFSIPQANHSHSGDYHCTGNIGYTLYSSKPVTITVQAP

[3] = molecular target: T2, human R131 FcγRIIa, extracellular region (human, UniProt P12318 34-217)
T2 chain: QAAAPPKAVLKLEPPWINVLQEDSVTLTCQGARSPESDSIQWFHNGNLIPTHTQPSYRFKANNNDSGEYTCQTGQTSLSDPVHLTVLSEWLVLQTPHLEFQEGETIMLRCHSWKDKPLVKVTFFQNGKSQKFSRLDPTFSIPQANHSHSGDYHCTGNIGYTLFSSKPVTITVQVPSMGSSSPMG

[4] = molecular target: human F158 FcγRIIIa, extracellular region (human, UniProt P08637 17-208)
[5] = molecular target: T3, human FcγRI, extracellular region (human, UniProt P12314 16-292)
T3 chain: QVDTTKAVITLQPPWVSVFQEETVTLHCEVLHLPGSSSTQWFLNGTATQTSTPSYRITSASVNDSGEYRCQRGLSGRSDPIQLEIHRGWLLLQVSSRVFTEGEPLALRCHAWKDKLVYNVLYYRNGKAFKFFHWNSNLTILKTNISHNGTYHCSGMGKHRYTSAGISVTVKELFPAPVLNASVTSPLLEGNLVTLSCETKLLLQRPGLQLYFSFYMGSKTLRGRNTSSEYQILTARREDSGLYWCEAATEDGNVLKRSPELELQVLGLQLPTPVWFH

[6] = molecular target: T4, human H131 FcγRIIa, extracellular region (human, UniProt P12318 34-217)
T4 chain: T2 chain with R134H

[7] = molecular target: T2, human R131 FcγRIIa, extracellular region
[8] = molecular target: T4, human H131 FcγRIIa, extracellular region

Sequence of human F158 FcγRIIIa, extracellular region (P08637 17-208): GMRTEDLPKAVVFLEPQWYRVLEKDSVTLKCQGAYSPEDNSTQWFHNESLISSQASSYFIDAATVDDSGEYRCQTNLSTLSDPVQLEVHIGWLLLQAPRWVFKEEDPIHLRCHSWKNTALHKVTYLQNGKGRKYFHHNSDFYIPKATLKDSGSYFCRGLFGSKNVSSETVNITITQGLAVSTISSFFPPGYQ
Sequence of human V158 FcγRIIIa, extracellular region (P08637 17-208 F176V): as the sequence (P08637 17-208) above, with F160V counted along it

B1: IgG2_S239D/I332E (antibody)
chain: ASTKGPSVFPLAPCSRSTSESTAALGCLVKDYFPEPVTVSWNSGALTSGVHTFPAVLQSSGLYSLSSVVTVPSSNFGTQTYTCNVDHKPSNTKVDKTVERKCCVECPPCPAPPVAGPDVFLFPPKPKDTLMISRTPEVTCVVVDVSHEDPEVQFNWYVDGVEVHNAKTKPREEQFNSTFRVVSVLTVVHQDWLNGKEYKCKVSNKGLPAPEEKTISKTKGQPREPQVYTLPPSREEMTKNQVSLTCLVKGFYPSDIAVEWESNGQPENNYKTTPPMLDSDGSFFLYSKLTVDKSRWQQGNVFSCSVMHEALHNHYTQKSLSLSPGK
**Q.** Which results are given for B1?
**A.** Kd [1]: 30.3 nM; Kd [2]: 682 nM; Kd [3]: 128 nM; Kd [4]: 81.7 nM; Kd [5]: 24.2 nM; Kd [6]: 160 nM

B2: IgG2_S239D/I332E/G327A (antibody)
chain: B1 chain with G206A
**Q.** B2 was tested. Which Kd [1] did it give?
**A.** 19.4 nM

**Q.** And the Kd [2]?
**A.** 232 nM

**Q.** What about the Kd [3] of the same binder?
**A.** 161 nM

**Q.** What about the Kd [4] of the same binder?
**A.** 36.3 nM

**Q.** What about the Kd [5] of the same binder?
**A.** 13.2 nM

**Q.** What about the Kd [6] of the same binder?
**A.** 122 nM

B3: IgG2 WT (antibody)
chain: B1 chain with D118S, E211I
**Q.** For B3, which Kd [3] is on record?
**A.** 4270 nM

**Q.** What about the Kd [6] of the same binder?
**A.** 525 nM

B4: WT IgG2 (antibody)
chain: B1 chain with D118S, E211I
**Q.** For B4, which Kd [7] is on record?
**A.** 4270 nM

**Q.** And the Kd [8]?
**A.** 525 nM

— US20170166655A1 (published 2017)
